Results as given in paper PMC1635324 (Nucleic Acids Research, 2006).
One block for each binder: values may come before it.

Assays:
[1] = target: T1, ribosomal protein L10 from Sulfolobus solfataricus (Sulfolobus solfataricus, UniProt P96039 1-338); assay: SEC
T1 sequence (looked up): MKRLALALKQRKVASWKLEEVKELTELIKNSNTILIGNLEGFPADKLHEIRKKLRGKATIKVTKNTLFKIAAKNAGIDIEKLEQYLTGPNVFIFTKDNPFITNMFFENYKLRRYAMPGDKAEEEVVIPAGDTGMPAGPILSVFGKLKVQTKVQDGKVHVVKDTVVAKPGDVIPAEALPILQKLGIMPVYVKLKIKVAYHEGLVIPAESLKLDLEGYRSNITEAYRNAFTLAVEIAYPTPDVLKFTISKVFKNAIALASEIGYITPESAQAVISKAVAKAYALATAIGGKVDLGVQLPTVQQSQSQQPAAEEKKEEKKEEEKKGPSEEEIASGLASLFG

[2] = target: T1, ribosomal protein L10 from Sulfolobus …; assay: native gel or EMSA
[3] = target: T2, ribosomal protein L10 from Methanococcus vannielii (Methanococcus vannielii, UniProt P15826 1-336); assay: SEC
T2 sequence (looked up): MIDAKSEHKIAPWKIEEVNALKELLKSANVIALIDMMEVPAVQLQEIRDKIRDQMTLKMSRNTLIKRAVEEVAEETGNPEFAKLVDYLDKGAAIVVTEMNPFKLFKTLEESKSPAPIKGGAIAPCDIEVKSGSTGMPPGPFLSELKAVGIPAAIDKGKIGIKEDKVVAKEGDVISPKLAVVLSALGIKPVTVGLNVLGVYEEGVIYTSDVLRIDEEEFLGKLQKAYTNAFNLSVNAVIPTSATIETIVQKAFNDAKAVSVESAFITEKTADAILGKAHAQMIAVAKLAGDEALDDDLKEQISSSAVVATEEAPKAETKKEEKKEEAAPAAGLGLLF

[4] = target: T2, ribosomal protein L10 from …; assay: native gel or EMSA
[5] = target: T3, ribosomal protein L10 from Thermus thermophilus (Thermus thermophilus, UniProt Q8VVE3 1-173); assay: SEC
T3 sequence (looked up): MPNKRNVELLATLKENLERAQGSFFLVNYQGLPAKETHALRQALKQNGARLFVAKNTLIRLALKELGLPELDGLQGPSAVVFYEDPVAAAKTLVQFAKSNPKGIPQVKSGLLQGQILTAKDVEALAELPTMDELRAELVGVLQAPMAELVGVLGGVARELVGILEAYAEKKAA

[6] = target: T4, ribosomal protein L10 from Methanococcus thermolithotrophicus (Methanococcus thermolithotrophicus, UniProt O52705 1-338); assay: SEC
T4 sequence (looked up): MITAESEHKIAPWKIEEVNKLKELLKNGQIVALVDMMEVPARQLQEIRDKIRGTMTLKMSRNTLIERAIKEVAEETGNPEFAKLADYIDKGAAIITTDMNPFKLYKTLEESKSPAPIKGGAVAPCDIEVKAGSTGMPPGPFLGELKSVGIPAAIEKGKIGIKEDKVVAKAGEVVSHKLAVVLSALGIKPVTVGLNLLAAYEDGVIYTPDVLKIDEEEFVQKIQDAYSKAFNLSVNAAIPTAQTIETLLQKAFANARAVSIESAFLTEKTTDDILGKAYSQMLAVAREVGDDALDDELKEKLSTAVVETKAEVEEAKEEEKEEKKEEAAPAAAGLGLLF

[7] = target: T4, ribosomal protein L10 from …; assay: native gel or EMSA
[8] = target: T5, ribosomal protein L10 from Methanococcus jannaschii (Methanococcus jannaschii, UniProt P54049 1-338); assay: native gel or EMSA
T5 sequence (looked up): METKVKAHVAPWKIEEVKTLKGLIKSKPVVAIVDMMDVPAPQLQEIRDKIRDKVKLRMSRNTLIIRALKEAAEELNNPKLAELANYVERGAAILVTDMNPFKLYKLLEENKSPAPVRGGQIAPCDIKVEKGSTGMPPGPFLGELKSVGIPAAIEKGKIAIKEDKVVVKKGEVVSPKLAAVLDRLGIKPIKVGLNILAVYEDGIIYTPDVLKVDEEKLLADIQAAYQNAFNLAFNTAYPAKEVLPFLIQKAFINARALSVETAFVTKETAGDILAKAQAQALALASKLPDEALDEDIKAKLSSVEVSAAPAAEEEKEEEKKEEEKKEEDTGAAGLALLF

stoichiometry N [1]: 4 L12 per L10
stoichiometry N [2]: ~4 L12 per L10
B1: ribosomal protein L12 from Sulfolobus solfataricus (natural protein, UniProt P96040 1-106, looked up)
chain: MEYIYASLLLHSAKKEISEDALKNVLTAAGISVDEVRLKAVVAALKEVNIDEVLKNAAAMPVAVAAQPQATQAQPAAEEKKEEKKEEEKKGPSEEEIASGLASLFG

stoichiometry N [3]: 4 L12 per L10
stoichiometry N [4]: ~4 L12 per L10
B2: ribosomal protein L12 from Methanococcus vannielii (natural protein, UniProt P10623 1-99, looked up)
chain: MEYIYAALLLNSANKEVTEEAVKAVLVAGGIEANDARVKALVAALEGVDIAEAIAKAAIAPVAAAAPVAAAAAPAEVKKEEKKEDTTAAAAAGLGALFM

stoichiometry N [5]: 6 L12 per L10
B3: ribosomal protein L12 from Thermus thermophilus (natural protein, UniProt Q8VVE2 1-125, looked up)
chain: MALDIERIKEELSQATVLELKQLIDALKEAWGVTAAAPVAVAAAPAAGAAAAPAEEKTEFDVILKEAGAKKLEVIKELRAITGLGLKEAKDLAEKGGPVKEGVSKQEAEEIKKKLEAVGAVVELK

Second part, the binder before the results:

B4: ribosomal protein L12 from Methanococcus thermolithotrophicus (natural protein, UniProt O52706 1-101, looked up)
chain: MEYIYASLLLHSAGKEITEDAVKAVLSAAGVEVEDARVKALVAALEGVDIEEAIEKAAMPVAAAAAPAAAPAEEPKEEKKEEKKEEDTTAAAAAGLGALFG
stoichiometry N [6]: 4 L12 per L10
stoichiometry N [7]: ~4 L12 per L10

B5: ribosomal protein L12 from Methanococcus jannaschii (natural protein, UniProt P54048 1-102, looked up)
chain: MEYIYAALLLHSAGKEITEDAIKAVLSAAGVEVDDARVKALVAGLEGVDIEEAIANAAMPVAAAPAAAAPAAAAEEKKEEEKKEEKKEEDTAAVAGLAALFG
stoichiometry N [8]: ~4 L12 per L10
